± gives the standard deviation.
Test: protein stability index of a GFP-peptide fusion (GPS, HEK-293T) (PSI 1-6); higher = more stable
[1] = treatment: DMSO, c terminus: a fixed tail appended
[2] = treatment: MLN4924 1 uM, 8 h, c terminus: a fixed tail appended
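Further: 24-mer peptide tiles fused after GFP, lentivirally expressed, FACS-sorted into six equal bins by GFP/DsRed ratio, decoded by Illumina sequencing, PSI is the read-weighted mean bin number.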

Row | Sequence | protein stability index [1] | protein stability index [2] | protein stability index (treatment: DMSO, c terminus: native) | protein stability index (treatment: MLN4924 1 uM, 8 h, c terminus: native)
1 | ASSPKGTIENILDNDPRDLIGDFS [CDC25A] | 4.91 ± 0.21 | 4.82 ± 0.14 | – | –
2 | ASSWKKQVSHDFLETRFKIQQLLE [FBXO34] | 2.89 ± 0.31 | 2.71 ± 0.41 | – | –
3 | ASTSLPTKPTQGASSASEPQGLFV [CLPTM1] | 4.42 ± 0.12 | 4.29 ± 0.48 | – | –
4 | ATGMEVGWYRPPFSRVVHLYRNGK [MOG] | 3.12 ± 0.36 | 2.98 ± 0.14 | – | –
5 | ATNPHVKPPYSYATLICMAMQASK [FOXJ1] | 2.29 ± 0.32 | 2.36 ± 0.064 | – | –
6 | ATPIVPVVPPTPPVVKKKGVKRKA [BRD3] | 5.33 ± 0.26 | 5.27 ± 0.12 | – | –
7 | AVHSGTPVTNNLLEKCKTLVSQSN [SPACA9] | 3.76 ± 0.42 | 3.78 ± 0.39 | – | –
8 | AVMRGQILNLTQALKDNKSPLHLV [PI4K2A] | 2.33 ± 0.33 | 2.3 ± 0.24 | – | –
9 | AVNRARRPLARPIKPNEILPPEKG [RHOBTB2] | 4.24 ± 0.12 | 4.27 ± 0.12 | – | –
10 | AVRCASGRCTVRDFIHRHCQDQNV [SDE2] | 2.59 ± 0.41 | 2.39 ± 0.5 | – | –
11 | AYGHRQCLELVSCFVLFSLTHTHT [ANKRD44] | 2.52 ± 1 | 3.3 ± 0.47 | – | –
12 | AYIQCQFEDLNKRKDTKEIYTHFT [GNAI1] | 2.14 ± 0.49 | 2.25 ± 0.3 | – | –
13 | CAYRTHLVAGIGFYQHLLLYIQSH [SMG5] | 3.01 ± 0.63 | 3.34 ± 0.87 | – | –
14 | CDDSFTPQEKLWQQLRRGRYVEFN [CPOX] | 3.08 ± 0.14 | 2.89 ± 0.3 | – | –
15 | CEDLDELHYQDTDSDVPEQRDSKC [MYBL2] | 5.65 ± 0.37 | 5.54 ± 0.24 | – | –
16 | CEENEQSLPPPAGLNSSWVELPMN [BNIP3L] | 4.65 ± 0.34 | 4.41 ± 0.25 | – | –
17 | CEVMQEIVDQVLEEDFDSEQLSVL [INTS3] | 5.06 ± 0.14 | 5.16 ± 0.12 | – | –
18 | CGFGGGAGSVFGGGFGGGVGGGFG [KRT15] | 2.27 ± 0.49 | 2.77 ± 0.23 | – | –
19 | CGTPNYLSPEVLNKQGHGCESDIW [PLK2] | 2.78 ± 0.28 | 2.83 ± 0.28 | – | –
20 | CGYEGCRYGCGHRGCGDGCCCPSC [KRTAP19-2] | 3.72 ± 0.31 | 3.72 ± 0.39 | – | –
21 | CHLCVNYIEMQTDPANCDYVIVSG [YJU2B] | 2.71 ± 0.26 | 2.57 ± 0.33 | – | –
22 | CHSFISGTAPLNQETAEFFLSLDI [ACSBG2] | 3.01 ± 1.4 | 2.6 ± 1.6 | – | –
23 | CKRNFVAVYDGSSSVEDLKAKFCS [NETO1] | 2.78 ± 0.39 | 2.9 ± 0.36 | – | –

Row | Sequence | protein stability index [1] | protein stability index [2] | protein stability index (treatment: DMSO, c terminus: native) | protein stability index (treatment: MLN4924 1 uM, 8 h, c terminus: native)
24 | CLKEFPEKQELHRNMLGLLGNVAE [ZER1] | 3.19 ± 0.15 | 3.3 ± 0.23 | – | –
25 | CLRVGMLKEGVRLDRVRGGRQKYK [ESRRA] | 3.12 ± 0.24 | 3.42 ± 0.46 | – | –
26 | CNSHMPYGYAAQARARERERLAHS [KCNA4] | 3.1 ± 0.23 | 3.13 ± 0.31 | – | –
27 | CPGLRLPGSLAGRRAGPAIWAQGW [AUH] | 2.83 ± 0.15 | 1.82 ± 0.35 | – | –
28 | CPVEYNNDTNSFTVDCEPSDLFRL [CDS2] | 3.94 ± 0.21 | 4.03 ± 0.17 | – | –
29 | CQILELLNAELEEKMMQEAEKLKA [CCDC89] | 3.76 ± 0.26 | 3.65 ± 0.17 | – | –
30 | CSEDWVGYQRKCYFISTVKRSWTS [CD69] | 2.36 ± 0.33 | 2.65 ± 0.49 | – | –
31 | CSHSFLLAVMGYDRYIAICNPLRY [OR10K2] | 2.87 ± 0.52 | 2.88 ± 0.58 | – | –
32 | CSKSFRQRAGLIMHQVTHFRGLI [ZNF449] | – | – | 2.92 ± 0.45 | 3.08 ± 0.35
33 | CTEILTEKKDTITNDSLSLKPSWF [MIA2] | 3.23 ± 0.28 | 3.42 ± 0.42 | – | –
34 | CTKTCGVGVRMRDVKCYQGTDIVR [ADAMTSL2] | 3.27 ± 0.4 | 2.65 ± 0.33 | – | –
35 | CTRFTDEYQLFEELGKGAFSVVRR [CAMK2D] | 2.81 ± 0.31 | 2.84 ± 0.39 | – | –
36 | CVDVVFYNPDLKKVVEAHKIVLCA [RHOBTB3] | 3.01 ± 1.1 | 2.74 ± 0.81 | – | –
37 | CVKLCTGHEYAAKIINTKKLSARD [CAMK2B] | 3.14 ± 0.18 | 3.18 ± 0.28 | – | –
38 | DALRNLKCGSGARGGDGEVASAPL [TRADD] | 4.15 ± 0.38 | 4.05 ± 0.3 | – | –
39 | DAVGMLGIEEVTYENCLQALADVE [NLN] | 4.25 ± 0.27 | 3.9 ± 0.34 | – | –
40 | DAVTIPCGHTFCRLCLPALSQMGA [TRIM15] | 2.47 ± 0.35 | 2.17 ± 0.27 | – | –
41 | DCGPSRADRCSPKEDQAWDGASQD [FBXO34] | 5.37 ± 0.24 | 5.25 ± 0.28 | – | –
42 | DDFHTNDVCSFPNALVTKLLLDCG [FEM1B] | 2.55 ± 0.26 | 2.44 ± 0.2 | – | –
43 | DEAKAPHWTSAPLTEASAHSHPPE [MAP2] | 5.39 ± 0.16 | 5.37 ± 0.075 | – | –
44 | DEKINIYCLTCEVPTCSMCKVFGI [TRIM63] | 2.43 ± 0.14 | 2.45 ± 0.32 | – | –
45 | DEMVIVKDIDMFSMCEHHLVPFVG [GCH1] | 2.76 ± 0.22 | 2.64 ± 0.37 | – | –
46 | DEPVCGRPLGIRAGPNGTLFVADA [APMAP] | 3.83 ± 0.22 | 4.03 ± 0.27 | – | –

Row | Sequence | protein stability index [1] | protein stability index [2] | protein stability index (treatment: DMSO, c terminus: native) | protein stability index (treatment: MLN4924 1 uM, 8 h, c terminus: native)
47 | DETHFGKMGSYYINRTFFFDVHPP [POMT2] | 2.45 ± 0.21 | 2.23 ± 0.33 | – | –
48 | DFPEDGLKIFTEDLPEVESLPRDR [VPS39] | 5.31 ± 0.31 | 5.39 ± 0.068 | – | –
49 | DFQGRILSVDPEEEREEGPPRIPQ [RHOBTB1] | 5.29 ± 0.31 | 5.22 ± 0.22 | – | –
50 | DFSGLTLDGALRTFLKAFPLMGET [PSD2] | 1.91 ± 0.24 | 2.05 ± 0.34 | – | –
51 | DGTSQSTGGSADLFGGFADFGSAA [CLINT1] | 4.71 ± 0.25 | 4.46 ± 0.27 | – | –
52 | DHQDSDEFCRNTLCAPEVISLINT [FAF2] | 3.72 ± 0.37 | 3.67 ± 0.38 | – | –
53 | DILMEFGHLFPPPTPIFAGGANDR [WSB1] | 2.41 ± 0.46 | 2.51 ± 0.45 | – | –
54 | DILPRWAIIGWLLTTCTSNVAASN [INTS3] | 3.24 ± 0.47 | 3.08 ± 0.51 | – | –
55 | DKLGELSDKIGSTIDDTISKFRRK [CLINT1] | 3.32 ± 0.58 | 3.4 ± 0.39 | – | –
56 | DLAEFAKKQPWWRKLFGQESGPSA [FUNDC2] | 2.65 ± 0.13 | 2.58 ± 0.17 | – | –
57 | DLCSDVNVCSLLAQTPLHVAAETG [RIPK4] | 3.46 ± 0.4 | 3.21 ± 0.47 | – | –
58 | DLFGWSQLIYNHITTRVNSEQEHF [ADD1] | 2.72 ± 0.51 | 2.55 ± 0.41 | – | –
59 | DLIDNLKEAQYIRTERVEQAFRAI [PCMTD1] | 2.29 ± 0.17 | 2.27 ± 0.14 | – | –
60 | DNARLAADDFRTKYEHELALRQTV [KRT16] | 4.01 ± 0.17 | 4.11 ± 0.26 | – | –
61 | DNDPSCVHPIIKRRQCRPEIRMWQ [PHTF1] | 2.54 ± 0.25 | 2.5 ± 0.41 | – | –
62 | DNHNLIERRRRFNINDRIKELGTL [TFE3] | 3.33 ± 0.13 | 3.69 ± 0.22 | – | –
63 | DNVPDPKDVKERFSGSLVAALSAT [TMEM175] | 4.42 ± 0.34 | 4.44 ± 0.34 | – | –
64 | DPGQDLVPKQAIQVQEADEAGWGG [DLX1] | 5.18 ± 0.28 | 5.22 ± 0.4 | – | –
65 | DPSSTKPGTLLKTSPSPERSLLLK [TRIM14] | 4.59 ± 0.2 | 4.67 ± 0.21 | – | –
66 | DPTGPAGLGRPTPGLSQGPGKETL [EHMT1] | 5.17 ± 0.15 | 5.09 ± 0.13 | – | –
67 | DPVRQCAECALVSLKEAEFYDKQL [ZFYVE21] | 3.62 ± 0.046 | 3.67 ± 0.32 | – | –
68 | DQFTQVFLESQGIELNPPEKMALD [EFHC1] | 4.662 ± 0.027 | 4.78 ± 0.24 | – | –
69 | DRFLAGVPTPKSHLQLLGAVCMFL [CCND2] | 2.63 ± 0.2 | 2.27 ± 0.21 | – | –

Row | Sequence | protein stability index [1] | protein stability index [2] | protein stability index (treatment: DMSO, c terminus: native) | protein stability index (treatment: MLN4924 1 uM, 8 h, c terminus: native)
70 | DRHTKFFEEPEDPSNRSFFSEIIS [PPP2R2B] | 3.38 ± 0.1 | 3.48 ± 0.23 | – | –
71 | DRILERIEDSTGLNRPGPAPLSSR [TCF25] | 4.47 ± 0.21 | 4.66 ± 0.19 | – | –
72 | DTAHDFRAKCRNMEHALREKAKAF [TRIM35] | 3.18 ± 0.25 | 3.43 ± 0.23 | – | –
73 | DTVEIREVHERNDGIDPFPLLMNR [EFHC1] | 4.3 ± 0.15 | 4.42 ± 0.25 | – | –
74 | DTVTIPVPSEEPQESDQTEEHESG [IQUB] | 5.54 ± 0.29 | 5.72 ± 0.14 | – | –
75 | DVAVTVDRDRFMDEFFEQVEEIRG [STX1A] | 4.35 ± 0.39 | 4.49 ± 0.25 | – | –
76 | DVLLLGNDYIVPRHCPELAEMSRV [HNF4A] | 2.65 ± 0.2 | 2.49 ± 0.3 | – | –
77 | DVTDEHGEREPFAETDEHTGANTK [FAM9B] | 5.49 ± 0.12 | 5.5 ± 0.065 | – | –
78 | EAARNGKMKFVIGNGKNLVDFTFV [NSDHL] | 2.17 ± 0.47 | 2.04 ± 0.35 | – | –
79 | EADKNDKAVKDLVVLLFETALLSS [HSP90AB1] | 2.13 ± 0.067 | 2.2 ± 0.39 | – | –
80 | EAFQLYQEAAQLDMLLEKLPQVAE [FLOT1] | 2.43 ± 0.37 | 2.69 ± 0.44 | – | –
81 | EAFYYIHNLVVACEIQVRTLASAG [ADD1] | 2.93 ± 0.63 | 2.98 ± 0.57 | – | –
82 | EAPSTASSTPDSTEGGNDDSDFRE [RTN2] | 5.57 ± 0.35 | 5.63 ± 0.23 | – | –
83 | EARGIRAPPLPDSPQPLASSPGPW [FCHO1] | 4.34 ± 0.28 | 4.31 ± 0.15 | – | –
84 | EATPRSLRASGSLCGPHAKAPYLC | 2.77 ± 0.26 | 2.82 ± 0.23 | – | –
85 | EAYLASLRADQEKERKKREERERK [FAF2] | 5.33 ± 0.35 | 5.46 ± 0.23 | – | –
86 | EAYTEHRPEITSRAINLLFDIARI [ZER1] | 2.14 ± 0.18 | 2.01 ± 0.21 | – | –
87 | EDAEGEEEEEEEEEEEDDLSELPP [FKBP8] | 5.67 ± 0.19 | 5.56 ± 0.18 | – | –
88 | EDEEPQEPNRLETGEAGEELDLRL [RTN2] | 5.73 ± 0.12 | 5.52 ± 0.4 | – | –
89 | EDELSLVKGSRVTVMEKCSDGWWR [NCK2] | 3.68 ± 0.18 | 3.69 ± 0.32 | – | –
